This note sets out measurements from patent publication US11906519B2, “Methods for identifying LILRB-blocking antibodies” (THE BOARD OF REGENTS OF THE UNIVERSITY OF TEXAS SYSTEM, priority 2016, dated 2024).

The test system of experiment [1] is THP-1 cells. In words: Transwell trans-endothelial migration of THP-1 cells. Format: cell-based, human.
The target in experiment [2] is T1, LILRB4-Fc (Homo sapiens, UniProt Q8NHJ6). Kind of experiment: Bio-layer interferometry (Octet) binding of APOE to LILRB4-Fc. Particulars: APOE 44 nM to 1176 nM. As to the method:
(§1) FIGS. 29a-29g—Three APOE isoforms bind to human LILRB4. FIGS. 29a-c: Binding kinetics of APOE 2, 3, and 4 to LILRB4-Fc were measured using surface plasmon resonance (SPR). LILRB4-Fc was immobilized on Protein A biosensor tips and incubated with APOE concentrations ranging from 1.5625 nM to 100 nM. […] (FIGS. 29d-f) Binding kinetics of APOE 2, 3, and 4 to LILRB4-Fc were measured using Bio-layer Interferometry (Octet). LILRB4-Fc was immobilized on Protein A biosensor tips and incubated with APOE concentrations ranging from 44 nM to 1176 nM. […] (FIG. 29g) Binding kinetics of APOE 3 to His-LILRB4 was measured using microscale thermophoresis (MST).
Bio-layer Interferometry. Binding interactions analyses between LILRB4-Fc with APOE2, APOE3, and APOE4 were performed on the Octet RED96 (ForteBio, Pall Corporation). All interaction studies were performed with the protein A dip-and-read biosensors (ForteBio). All binding experiments were performed using the Octet Red and kinetics buffer at 30° C. LILRB4-Fc coated biosensors (25 μg/ml LILRB4-Fc was loaded for 420 s) were washed in kinetics buffer before monitoring of association (300 s) and dissociation (600 s) of APOEs. Background wavelength shifts were measured from reference sensors that were loaded only with LILRB4-Fc.
(In BLI a coated tip is dipped into the sample, and binding shifts an interference pattern.)

Experiment [3] addresses T1, LILRB4-Fc. Kind of experiment: Surface plasmon resonance (SPR) binding of APOE to LILRB4-Fc. As to conditions: APOE 1.5625 nM to 100 nM.
Description: (§2) FIGS. 25a-251—APOE binds LILRB4 and supports AML migration. FIG. 25a: As shown by analysis of the percentage of cells in the LILRB4 reporter system that are GFP^+, human serum and mouse serum specifically activate LILRB4. FIG. 25b: Recombinant APOE activates human LILRB4 and mouse PIRB in reporter systems. FIG. 25c: Serum from APOE-null mouse was unable to activate LILRB4. FIG. 25d: Lipid-reconstituted APOE (APOE-POPC) activates human LILRB4 as well as recombinant APOE in reporter systems. […] Cells stained with anti-His tag-APC served as a negative control. FIG. 25f: Binding kinetics of human APOE-3 to LILRB4-ECD-Fc were measured using surface plasmon resonance (SPR). LILRB4-ECD-Fc was immobilized on Protein A biosensor tips and incubated with APOE-3 concentrations ranging from 1.5625 nM to 100 nM. FIG. 25g: The activation of LILRB4 by APOE was reduced by mutation at N-terminal of APOE. FIG. 25h: The activation of LILRB4 by APOE was reduced by the indicated single amino acid mutation of LILRB4. FIG. 25i-FIG. 25l: APOE is necessary for LILRB4-mediated homing. Forced expression of human lilrb4 on mouse leukemia C1498 cells increases leukemia cell homing in wildtype (WT) recipient mice (n=5) (shown in FIG. 25i). Human lilrb4-expressing C1498 cells (1), but not control GFP-expressing C1498 cells (FIG. 25k), were less capable of homing in APOE-null (KO) mice (n=5) than in WT mice (n=5); Mice were sacrificed at 20 hrs after injection of leukemia cells. GFP was used to detect leukemia cells by flow cytometry.
as §1

Another experiment addresses T2, LILRB4 (Homo sapiens, UniProt Q8NHJ6).
T2 construct: fusion of the extracellular domain (ECD) of individual LILRBs and their mouse orthologues; PILRbeta part (fusion partner); expressed in transfected cells
Kind of experiment: LILRB4 chimeric receptor reporter cells (NFAT-GFP). Format: cell-based. As to conditions: for Activation of LILRB4 reporter by APOE isoforms: 40 μg/ml APOEs coated on plates or soluble. An excerpt:
The inventors sought to determine if antagonizing LILRB4 could prevent AML development by reversing LILRB4-mediated immune inhibition. To identify potential agonists and antagonists of LILRBs, the inventors generated individual stable chimeric receptor reporter cells based on fusion of the extracellular domain (ECD) of individual LILRBs and their mouse orthologues PirB^27 and gp49B1^28, with the intracellular domain of paired immunoglobulin-like receptor β, which signals through the adaptor DAP-12 to activate NFAT promoter-driven GFP expression, as the inventors have described^2, 31. With help from this system, the inventors generated novel anti-LILRB4 blocking antibodies to further assess LILRB4-mediated signaling (FIG. 10).
(§3) Chimeric receptor reporter cells. The inventors constructed a stable chimeric receptor reporter cell system as described^2 31 to test the ability of a ligand to bind to the ECD of individual LILRBs, PirB, and gp49B1 and to trigger the activation or inhibition of the chimerically fused intracellular domain of paired immunoglobulin-like receptor β, which signals through the adaptor DAP-12 to activate the NFAT promoter. If an agonist or antagonist binds the ECD and activates or suppresses the chimeric signaling domain, an increase or decrease, respectively, in GFP expression is observed.
APOE competition assay was used to screen LILRB4 blocking antibodies. Briefly, APOE proteins were pre-coated on 96-well plate at 37° C. for 3 hrs. After 2 times washing by PBS, 2×10^4 LILRB4 reporter cells were seeded in each well; meanwhile, indicated anti-LILRB4 antibodies were added into culture media. After 16 hrs, the percentage of GFP^+ reporter cells was analysed by flow cytometry.

In a further experiment the target is T3, gp49B1 (Mus musculus, UniProt Q64281).
T3 construct: PILRbeta part (fusion partner); expressed in transfected cells
T3 sequence (Q64281 24-238): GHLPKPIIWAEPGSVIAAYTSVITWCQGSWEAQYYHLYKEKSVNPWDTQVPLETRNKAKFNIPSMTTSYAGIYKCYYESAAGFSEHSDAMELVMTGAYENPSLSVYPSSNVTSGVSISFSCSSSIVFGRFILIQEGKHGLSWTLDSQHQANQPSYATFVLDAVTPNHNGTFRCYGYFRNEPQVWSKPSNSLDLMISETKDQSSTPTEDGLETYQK
In words: gp49B1 chimeric receptor reporter cells. It counts as cell-based.
Description: as §3

The next experiment concerns the target T4, PirB (Mus musculus, UniProt P97484).
T4 construct: PILRbeta part (fusion partner); expressed in transfected cells
T4 sequence (P97484 25-642): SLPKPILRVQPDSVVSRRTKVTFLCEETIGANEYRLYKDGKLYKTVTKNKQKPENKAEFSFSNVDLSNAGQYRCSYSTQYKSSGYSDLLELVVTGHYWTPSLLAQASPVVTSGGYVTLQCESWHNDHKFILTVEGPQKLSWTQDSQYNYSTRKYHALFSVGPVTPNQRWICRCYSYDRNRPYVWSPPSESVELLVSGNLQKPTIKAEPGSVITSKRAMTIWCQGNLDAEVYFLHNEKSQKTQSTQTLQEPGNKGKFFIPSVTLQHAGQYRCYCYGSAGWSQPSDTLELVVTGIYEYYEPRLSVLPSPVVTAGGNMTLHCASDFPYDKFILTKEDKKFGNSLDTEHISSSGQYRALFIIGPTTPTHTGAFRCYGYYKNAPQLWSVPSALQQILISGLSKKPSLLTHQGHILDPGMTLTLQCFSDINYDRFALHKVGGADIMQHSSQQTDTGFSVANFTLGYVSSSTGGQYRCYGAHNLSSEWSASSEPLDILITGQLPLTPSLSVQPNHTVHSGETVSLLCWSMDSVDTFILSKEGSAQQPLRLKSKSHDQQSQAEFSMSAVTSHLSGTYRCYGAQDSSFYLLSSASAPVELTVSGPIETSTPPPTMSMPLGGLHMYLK
In words: PirB chimeric receptor reporter cells. Format: cell-based.
Description: as §3

The subject of experiment [4] is THP-1 cells. In words: APOE binding to THP-1 cells by flow cytometry. Further details: species or system human. As to conditions: lilrb4-knockout versus wild-type THP-1 cells.
Description: as §2, with “Human lilrb4-expressing C1498 cells (1), but not control GFP-expressing C1498 cells (FIG. 25k), were less capable of homing in APOE-null (KO) mice (n=5) than in WT mice (n=5); Mice were sacrificed at 20 hrs after injection of leukemia cells. GFP was used to detect leukemia cells by flow cytometry.” left out

The subject of experiment [5] is T cells co-cultured with THP-1 cells. In words: Tumor cell/T cell co-culture assay. It counts as cell-based, human. Particulars: T cells with irradiated THP-1 cells, protein supplemented. As to the method:
Tumor cell/T cell co-culture assay. Human T cells isolated from health donor peripheral blood (PB009-1-0, Allcells) were co-cultured with irradiated (28 Gy) THP-1 cells in a U-bottom 96 well-plate for 3-7 days. Anti-CD3/CD28-coated beads (#11161D, Thermo Fisher), 50 U/ml recombinant human IL-2, and 5 ng/ml recombinant human IL-7 were supplemented to the medium. In some experiments, THP-1 cells were cultured in the upper chamber of transwell inserts (pore size is 3 μM, #09-761-80, Thermo Fisher) for the U-bottom 96 well-plate. For primary AML or B-ALL samples, patient CD3^+ T cells were collected and patient leukemia cells were sorted as CD33^+ and CD19^+ for AML and B-ALL, respectively.
CD8^+ T cells (5×10^4 per well) isolated from hPBMCs of a healthy donor (Interstate Blood Bank) were stimulated with anti-CD3/CD28/CD137-coated beads (11163D, Thermo Fisher) or cultured without stimulation for 2 days in a 96-well plate. Then, 5×10^3 human leukemia THP-1-Luc-GFP cells and 50 to 500 μg/ml anti-LILRB4 antibody C84 or control antibody mIgG were added. Cell numbers were determined on day 7 in triplicate wells. Anti-CD8 and anti-CD28 were used to detect human CTL cells; THP-1 cells were positive for GFP. […]

A further experiment relates to MV4-11 cells. Kind of experiment: Transwell trans-endothelial migration of MV4-11 cells. Particulars: lilrb4-KO MV4-11, recombinant protein supplemented. It counts as cell-based, human. As to the method:
Transwell assay. To test the cell plasticity, 1×10^5 MV4-11 cells were labelled with CFSE (Invitrogen) and treated with 100 μg/ml of anti-LILRB4 antibody C84 or control antibody mIgG and cultured in the upper chamber of well in a transwell plate (Corning). After 18 h, cells in lower chamber were counted. To test the ability of AML cells to migrate through endothelial cells, 3×10^5 human umbilical vein endothelial cells (HUVEC) cells were cultured on the transwell membrane. After 3 days, 1×10^5 CFSE-labelled MV4-11 cells were seeded in the upper chamber with 100 μg/ml of C84 or mIgG. After 18 h, cells in lower chamber were counted.

T2 sequence (Q8NHJ6 with tags, fused parts or gaps): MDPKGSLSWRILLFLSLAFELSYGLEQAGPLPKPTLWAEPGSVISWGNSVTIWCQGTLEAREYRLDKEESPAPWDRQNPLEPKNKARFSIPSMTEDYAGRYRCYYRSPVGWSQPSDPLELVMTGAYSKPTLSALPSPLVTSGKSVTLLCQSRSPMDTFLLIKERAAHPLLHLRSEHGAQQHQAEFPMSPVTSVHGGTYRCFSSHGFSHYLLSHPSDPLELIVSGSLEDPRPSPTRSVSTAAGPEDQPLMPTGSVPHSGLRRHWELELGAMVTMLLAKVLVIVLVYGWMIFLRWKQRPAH
T1 sequence (Q8NHJ6 22-259 limits assumed): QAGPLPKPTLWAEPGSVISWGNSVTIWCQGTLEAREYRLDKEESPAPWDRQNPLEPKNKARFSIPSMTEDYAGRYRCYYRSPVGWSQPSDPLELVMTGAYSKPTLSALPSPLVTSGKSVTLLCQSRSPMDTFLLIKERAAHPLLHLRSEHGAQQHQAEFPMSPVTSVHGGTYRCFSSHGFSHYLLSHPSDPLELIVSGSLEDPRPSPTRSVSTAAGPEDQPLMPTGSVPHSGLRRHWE

`O=[N+]([O-])c1ccc2c(c1)S(=O)(=O)C=C2` [stattic, reference compound]: the “THP-1 cell transmigration across endothelial cells” value in the experiment on THP-1 cells [1] (2.5 μM STAT inhibitor) is “decreases”.
In general, Kd refers to the concentration at which binding is half-saturated. Low values mean higher affinity, high ones lower affinity. With “APOE2: isoform of human APOE, ligand of LILRB4”, the figures for the Kd with LILRB4-Fc [2] and with LILRB4-Fc [3] were 60.7 nM and 5.53 nM, respectively. In addition, in the experiment with LILRB4, the “Activation of LILRB4 reporter by APOE isoforms” value is on record as “activate”.
Regarding “APOE3: isoform of human APOE, ligand of LILRB4”, the Kd with LILRB4-Fc [2] was 61.7 nM; with LILRB4-Fc [3], 2.48 nM. In the experiment with LILRB4, the “Activation of LILRB4 reporter by APOE isoforms” value is “activate”.
The corresponding values for “APOE4: isoform of human APOE, ligand of LILRB4” are 48.4 nM, 3.57 nM and “activate”.
For the molecule “recombinant APOE: recombinant APOE protein, isoform not stated at the place”, the “Activation of gp49B1 reporter” value with gp49B1 is listed as “not”. Also, the “Activation of mouse PirB reporter” value in the experiment with PirB is given as “specifically activated”. Further, the Kd with LILRB4-Fc [3] stood at 2 nM. In addition, in the experiment on THP-1 cells [4], the “Binding of APOE to THP-1 cells” value is “significantly decreased”. Also, the “Activation of LILRB4 reporter” value with LILRB4 (percentage of GFP+ reporter cells) was “activates”.

B1: arginase-1: recombinant Arginase-1 protein supplemented to culture (protein, UniProt P05089 1-322, looked up)
Arginase-1: MSAKSRTIGIIGAPFSKGQPRGGVEEGPTVLRKAGLLEKLKEQECDVKDYGDLPFADIPNDSPFQIVKNPRSVGKASEQLAGKVAEVKKNGRISLVLGGDHSLAIGSISGHARVHPDLGVIWVDAHTDINTPLTTTSGNLHGQPVSFLLKELKGKIPDVPGFSWVTPCISAKDIVYIGLRDVDPGEHYILKTLGIKYFSMTEVDRLGIGKVMEETLSYLLGRKKRPIHLSFDVDGLDPSFTPATGTPVVGGLTYREGLYITEEIYKTGLLSGLDIMEVNPSLGKTPEEVTRTVNTAVAITLACFGLAREGNHKPIDYLNPPK
With B1, the “T cell proliferation in coculture” value in experiment [5] is recorded as “decreased”. Further, the “Migration ability of THP-1 cells across endothelial cells” value in the experiment with THP-1 cells [1] (lilrb4-KO THP-1, recombinant protein supplemented) was “increased”. Besides, the “Migration ability of MV4-11 cells across endothelial cells” value with MV4-11 cells is listed as “increased”.

B2: CCL4: CCL4 protein supplemented in co-culture media (protein, UniProt P13236 24-92, looked up)
C-C motif chemokine 4: APMGSDPPTACCFSYTARKLPRNFVVDYYETSSLCSQPAVVFQTKRSKQVCADPSESWVQEYVYDLELN
For the molecule B2, the “T cell proliferation in coculture” value in [5] is listed as “suppressed”.
